The source of these data is article PMC3963918, “CCHCR1 Interacts Specifically with the E2 Protein of Human Papillomavirus Type 16 on a Surface Overlapping BRD4 Binding” (PLoS ONE, 2014).

For experiment [1], the target named is T1, HPV16 E2 protein fused to Gaussia luciferase fragment GL2 (human papillomavirus type 16, UniProt P03120 1-365).
T1 construct: source: 293 T cells, transfected (pSPICA-N2), in lysate
T1 sequence: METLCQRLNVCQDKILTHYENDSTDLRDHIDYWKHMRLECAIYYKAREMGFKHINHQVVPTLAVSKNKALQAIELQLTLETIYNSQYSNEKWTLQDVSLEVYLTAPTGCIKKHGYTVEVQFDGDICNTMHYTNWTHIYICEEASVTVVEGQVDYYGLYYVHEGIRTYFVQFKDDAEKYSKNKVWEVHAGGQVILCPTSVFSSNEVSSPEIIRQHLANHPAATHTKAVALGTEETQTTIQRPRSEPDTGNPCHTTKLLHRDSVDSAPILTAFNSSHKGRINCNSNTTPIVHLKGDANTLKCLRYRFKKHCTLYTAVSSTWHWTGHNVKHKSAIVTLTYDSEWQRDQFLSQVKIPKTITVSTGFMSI
Nature of the experiment: split reporter (BiFC, NanoBiT). The settings on record: partners not purified.

Experiment [2] concerns the target T1, HPV16 E2 protein fused to Gaussia …. Nature of the experiment: split reporter (BiFC, NanoBiT); GPCA competition: GL1 and GL2 partners plus a 3XFlag-tagged challenging protein (0.5 ug of each plasmid) in 293 T cells, 12-well plates, harvested 40 h after transfection; NLR relative to empty plasmid. The settings on record: partners not purified.

B1: CCHCR1 (Coiled-Coil alpha HeliCal Rod protein 1), polypeptide from amino acid 137 to the stop codon, fused to Gaussia luciferase fragment GL1 (domain or fragment)
chain: KAGRAEAEGLRAALAGAEVVRKNLEEGSQRELEEVQRLHQEQLSSLTQAHEEALSSLTSKAEGLEKSLSSLETRRAGEAKELAEAQREAELLRKQLSKTQEDLEAQVTLVENLRKYVGEQVPSEVHSQTWELERQKLLETMQHLQEDRDSLHATAELLQVRVQSLTHILALQEEELTRKVQPSDSLEPEFTRKCQSLLNRWREKVFALMVQLKAQELEHSDSVKQLKGQVASLQEKVTSQSQEQAILQRSLQDKAAEVEVERMGAKGLQLELSRAQEARRRWQQQTASAEEQLRLVVNAVSSSQIWLETTMAKVEGAAAQLPSLNNRLSYAVRKVHTIRGLIARKLALAQLRQESCPLPPPVTDVSLELQQLREERNRLDAELQLSARLIQQEVGRAREQGEAERQQLSKVAQQLEQELQQTQESLASLGLQLEVARQGQQESTEEAASLRQELTQQQELYGQALQEKVAEVETRLREQLSDTERRLNEARREHAKAVVSLRQIQRRAAQEKERSQELRRLQEEARKEEGQRLARRLQELERDKNLMLATLQQEGLLSRYKQQRLLTVLPSLLDKKKSVVSSPRPPECSASAPVAAAVPTRESIKGSLSVLLDDLQDLSEAISKEEAVCQGDNLDRCSSSNPQMSS
notes: also called Pg8; SBP
Take B1: in experiment [1], the “NLR (Normalized Luminescence Ratio)” value is approximately 250.

B2: 3XFLAG-tagged CCHCR1, shorter E2-interacting isoform (amino acid 137 to the stop codon) (domain or fragment)
chain: KAGRAEAEGLRAALAGAEVVRKNLEEGSQRELEEVQRLHQEQLSSLTQAHEEALSSLTSKAEGLEKSLSSLETRRAGEAKELAEAQREAELLRKQLSKTQEDLEAQVTLVENLRKYVGEQVPSEVHSQTWELERQKLLETMQHLQEDRDSLHATAELLQVRVQSLTHILALQEEELTRKVQPSDSLEPEFTRKCQSLLNRWREKVFALMVQLKAQELEHSDSVKQLKGQVASLQEKVTSQSQEQAILQRSLQDKAAEVEVERMGAKGLQLELSRAQEARRRWQQQTASAEEQLRLVVNAVSSSQIWLETTMAKVEGAAAQLPSLNNRLSYAVRKVHTIRGLIARKLALAQLRQESCPLPPPVTDVSLELQQLREERNRLDAELQLSARLIQQEVGRAREQGEAERQQLSKVAQQLEQELQQTQESLASLGLQLEVARQGQQESTEEAASLRQELTQQQELYGQALQEKVAEVETRLREQLSDTERRLNEARREHAKAVVSLRQIQRRAAQEKERSQELRRLQEEARKEEGQRLARRLQELERDKNLMLATLQQEGLLSRYKQQRLLTVLPSLLDKKKSVVSSPRPPECSASAPVAAAVPTRESIKGSLSVLLDDLQDLSEAISKEEAVCQGDNLDRCSSSNPQMSS
notes: also called Flag-CCHCR1; 3XFLAG CCHCR1; source: 293 T cells, transfected (pCiNeo-3XF), in lysate
On to B2, for which, in experiment [2], the “fold decrease of the NLR of HPV16 E2 with BRD4 in the presence of CCHCR1” value turned out to be 5 fold.
